Patent US20160060340A1
pKd: −log10 of the molar value.

Experiments:
[1] = target: FOLR1-mycHis (human) (UniProt P15328); assay: SPR (Biacore T100), antibody captured on CM5 chip, FOLR1-mycHis as analyte, single-cycle kinetics, 1:1 binding model
[2] = target: FOLR1-mycHis (human) (UniProt P15328); assay: SPR as in Example 29, antibody captured, FOLR1-mycHis as analyte

Sequence of FOLR1-mycHis (human) (P15328 25-233): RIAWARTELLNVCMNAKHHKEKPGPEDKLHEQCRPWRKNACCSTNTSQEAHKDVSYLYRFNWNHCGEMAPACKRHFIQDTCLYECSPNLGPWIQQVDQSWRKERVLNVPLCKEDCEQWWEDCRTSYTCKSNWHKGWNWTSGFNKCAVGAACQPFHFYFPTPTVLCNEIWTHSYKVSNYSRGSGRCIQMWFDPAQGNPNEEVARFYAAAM

pKd [1] | affinity as percent of that of HuRA15-7CTAcc antibody [2] [%] | Substance
7.18 |  | LK26 antibody (GeneTex)
 | 1.1 | MORAb-003DF antibody
7.04 |  | MOv18 antibody (ALEXIS BIO…)
